Results reported in the supplement of paper PMC10724198.
± gives the standard deviation of the averaged measurements.

What was measured:
Experiment in all cases: protein stability index of tFT-peptide fusion (C-terminal peptide) (PSI (0-1 scale)); higher = more stable (slower turnover)
Saccharomyces cerevisiae [1] = conditions: temperature: 30 C
Description: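 MPS profiling in S. cerevisiae of the yeast C-terminome library: the last 12 aa of each annotated ORF are fused to the C-terminus of a sfGFP-mCherry timer, after a GGGS linker. Cells are FACS-sorted into 8 mCherry/sfGFP bins and deep-sequenced. PSI runs from 0 (unstable) to 1 (stable); wild type and das1Δ backgrounds, two technical replicates each.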

Saccharomyces cerevisiae [2] = conditions: genetic background: wild type; temperature: 30 C
Saccharomyces cerevisiae [3] = tested on: Saccharomyces cerevisiae
Description: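 MPS profiling in S. cerevisiae of the tFT-X12 degron library: putative degron peptides plus stable controls, 12 aa, fused to the C-terminus of a sfGFP-mCherry timer. Cells are FACS-sorted into 8 mCherry/sfGFP bins and deep-sequenced. PSI runs from 0 (unstable) to 1 (stable). Backgrounds are wild type, das1Δ and doa10Δ at 30 °C, and wild type, das1Δ, cdc34-1 and cdc53-1 at 37 °C; 2-3 technical replicates each.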

[4] = genetic background: das1 deletion
[5] = genetic background: cdc34-1, temperature: 37 C
[6] = genetic background: cdc53-1, temperature: 37 C
[7] = genetic background: das1 deletion, temperature: 30 C
[8] = genetic background: das1 deletion, temperature: 37 C
[9] = genetic background: doa10 deletion, temperature: 30 C
[10] = genetic background: wild type, temperature: 30 C
[11] = genetic background: wild type, temperature: 37 C

Sequence	protein stability index (Saccharomyces cerevisiae [1]; [4])	protein stability index (Saccharomyces cerevisiae [1]; genetic background: wild type)	also measured
TFELVMRFLGEE [YMC2 C-terminal 12 aa]	0.709 ± 0.0094	0.669 ± 0.0095	
YSILWSDVYPDS [PDR1 C-terminal 12 aa]	0.7408 ± 0.0068	0.754 ± 0.013	
GQHTKTTGRRRA [RPS18A C-terminal 12 aa]	0.6995 ± 0.0039	0.686 ± 0.032	
TKMFPAHSHVLW [THP1 C-terminal 12 aa]	0.716 ± 0.032	0.72 ± 0.014	
SEKIYRRSLFKQ [YKL165C-A C-terminal 12 aa]	0.708 ± 0.03	0.686 ± 0.044	
SRIYQTFTDPSN [ADY4 C-terminal 12 aa]	0.729 ± 0.024	0.702 ± 0.061	
EESDSPESTAFY [PMC1 C-terminal 12 aa]	0.699 ± 0.01	0.6671 ± 0.0055	
MQRVSTQHEKSS [PMA2 C-terminal 12 aa]	0.693 ± 0.024	0.711 ± 0.096	
KLLGIFPNLSNF [YLL054C C-terminal 12 aa]	0.70477 ± 0.00046	0.358 ± 0.0064	
CFSCFHLSTHTN [YDR157W C-terminal 12 aa]	0.725 ± 0.018	0.6252 ± 0.005	
DIPRSNVYGSLI [SCY1 C-terminal 12 aa]	0.7131 ± 0.0063	0.672 ± 0.044	
GLVATAVKQLPQ [VPS64 C-terminal 12 aa]	0.674 ± 0.0032	0.662 ± 0.014	
QMVRDEGFEKNP [GPM3 C-terminal 12 aa]	0.68 ± 0.038	0.644 ± 0.036	
PDEISFLQQFTS [KAP104 C-terminal 12 aa]	0.721 ± 0.0076	0.676 ± 0.023	
NFQTHYRDELLQ [REH1 C-terminal 12 aa]	0.729 ± 0.054	0.584 ± 0.016	
GATDTSCYKERG [MRPL27 C-terminal 12 aa]	0.695 ± 0.026	0.702 ± 0.085	
KTFWDKFWNVVA [CAN1 C-terminal 12 aa]	0.735 ± 0.03	0.193 ± 0.014	
ITNATFREIDDA [SEC12 C-terminal 12 aa]	0.692 ± 0.0098	0.671 ± 0.03	
HHLTYLPSVPSL [MMO1 C-terminal 12 aa]	0.715 ± 0.025	0.71 ± 0.053	
PSSDHAKSVMGE [YML101C-A C-terminal 12 aa]	0.707 ± 0.018	0.6804 ± 0.0044	
RESINEAKLRHT [BDH2 C-terminal 12 aa]	0.676 ± 0.02	0.63 ± 0.011	
ESTGHVDFGQNR [OTU1 C-terminal 12 aa]	0.7 ± 0.012	0.703 ± 0.012	
KNRYLHLLEQHK [BET4 C-terminal 12 aa]	0.692 ± 0.018	0.67 ± 0.04	
SSTDMNGQPIEF [SKA1 C-terminal 12 aa]	0.6884 ± 0.0061	0.67 ± 0.015	
DGGWGNRGRSNY [DBP2 C-terminal 12 aa]	0.701 ± 0.01	0.667 ± 0.05	
WDKQKALERRSV [CNS1 C-terminal 12 aa]	0.723 ± 0.015	0.705 ± 0.024	
ASNGSIFQFSSP [REC104 C-terminal 12 aa]	0.692 ± 0.023	0.718 ± 0.01	
KFLRYNPLEKRD [RPB10 C-terminal 12 aa]	0.693 ± 0.012	0.704 ± 0.02	

Sequence	protein stability index (Saccharomyces cerevisiae [1]; [4])	protein stability index (Saccharomyces cerevisiae [1]; genetic background: wild type)	also measured
SPVPTKKKGFLR [CDC3 C-terminal 12 aa]	0.705 ± 0.017	0.684 ± 0.012	
AFKRKKQELGVN [QDR2 C-terminal 12 aa]	0.671 ± 0.013	0.697 ± 0.089	
CENANYRGAEVP [YIL175W C-terminal 12 aa]	0.692 ± 0.017	0.689 ± 0.015	
CDLVKNSNGLST [YOR200W C-terminal 12 aa]	0.68 ± 0.01	0.685 ± 0.039	
VSNLEVLEELFP [DPI35 C-terminal 12 aa]	0.722 ± 0.015	0.7123 ± 0.0038	
GNSDGSVEVTEK [RKI1 C-terminal 12 aa]	0.6897 ± 0.0053	0.705 ± 0.03	
RQYAGCKVNVGK [NUS1 C-terminal 12 aa]	0.707 ± 0.015	0.705 ± 0.051	
NNNNNNNDDDDK [CTK1 C-terminal 12 aa]	0.694 ± 0.021	0.691 ± 0.028	
IKGKFYVKILGN [YGR115C C-terminal 12 aa]	0.635 ± 0.036	0.648 ± 0.012	
TGWPTGLRHQHT [YER133W-A C-terminal 12 aa]	0.7212 ± 0.0034	0.695 ± 0.011	
TVGIHSPIDEKC [ATG4 C-terminal 12 aa]	0.699 ± 0.013	0.669 ± 0.015	
YSDGRNYKESSI [CSS3 C-terminal 12 aa]	0.69 ± 0.037	0.656 ± 0.045	
KKKANIPKAKSA [HUT1 C-terminal 12 aa]	0.706 ± 0.0094	0.686 ± 0.013	
HKELLAKLEGSD [HNT1 C-terminal 12 aa]	0.688 ± 0.0052	0.703 ± 0.025	
RARLIRKKKTIN [YER085C C-terminal 12 aa]	0.751 ± 0.022	0.202 ± 0.022	
KQLQEGNRRHKL [DCI1 C-terminal 12 aa]	0.768 ± 0.0084	0.808 ± 0.15	
PSYCSLRWSHRT [YLR169W C-terminal 12 aa]	0.7331 ± 0.006	0.705 ± 0.029	
KSEEAKKRTSLY [YBR124W C-terminal 12 aa]	0.694 ± 0.013	0.679 ± 0.023	
TFLCSSLALAVI			protein stability index (Saccharomyces cerevisiae [2]): 0.405 ± 0.042; protein stability index (Saccharomyces cerevisiae [3]; [5]): 0.455 ± 0.03; protein stability index (Saccharomyces cerevisiae [3]; [6]): 0.509 ± 0.032; protein stability index (Saccharomyces cerevisiae [3]; [7]): 0.338 ± 0.022; protein stability index (Saccharomyces cerevisiae [3]; [8]): 0.4985 ± 0.0021; protein stability index (Saccharomyces cerevisiae [3]; [9]): 0.317 ± 0.023; protein stability index (Saccharomyces cerevisiae [3]; [10]): 0.334 ± 0.014; protein stability index (Saccharomyces cerevisiae [3]; [11]): 0.4789 ± 0.00054
YMVESVWVLLGT			protein stability index (Saccharomyces cerevisiae [2]): 0.49 ± 0.016; protein stability index (Saccharomyces cerevisiae [3]; [5]): 0.573 ± 0.029; protein stability index (Saccharomyces cerevisiae [3]; [6]): 0.5755 ± 0.0052; protein stability index (Saccharomyces cerevisiae [3]; [7]): 0.431 ± 0.032; protein stability index (Saccharomyces cerevisiae [3]; [8]): 0.582 ± 0.0083; protein stability index (Saccharomyces cerevisiae [3]; [9]): 0.381 ± 0.014; protein stability index (Saccharomyces cerevisiae [3]; [10]): 0.421 ± 0.042; protein stability index (Saccharomyces cerevisiae [3]; [11]): 0.564 ± 0.0079
YYFCMYFKVTLC			protein stability index (Saccharomyces cerevisiae [2]): 0.0781 ± 0.03; protein stability index (Saccharomyces cerevisiae [3]; [5]): 0.0445 ± 0.006; protein stability index (Saccharomyces cerevisiae [3]; [6]): 0.15 ± 0.064; protein stability index (Saccharomyces cerevisiae [3]; [7]): 0.15 ± 0.028; protein stability index (Saccharomyces cerevisiae [3]; [8]): 0.285 ± 0.0044; protein stability index (Saccharomyces cerevisiae [3]; [9]): 0.0456 ± 0.019; protein stability index (Saccharomyces cerevisiae [3]; [10]): 0.043 ± 0.0087; protein stability index (Saccharomyces cerevisiae [3]; [11]): 0.0707 ± 0.042
NRFRLFRLNFSV			protein stability index (Saccharomyces cerevisiae [2]): 0.302 ± 0.015; protein stability index (Saccharomyces cerevisiae [3]; [5]): 0.68 ± 0.042; protein stability index (Saccharomyces cerevisiae [3]; [6]): 0.724 ± 0.052; protein stability index (Saccharomyces cerevisiae [3]; [7]): 0.606 ± 0.02; protein stability index (Saccharomyces cerevisiae [3]; [8]): 0.751 ± 0.014; protein stability index (Saccharomyces cerevisiae [3]; [9]): 0.161 ± 0.0037; protein stability index (Saccharomyces cerevisiae [3]; [10]): 0.168 ± 0.024; protein stability index (Saccharomyces cerevisiae [3]; [11]): 0.36 ± 0.049
RFFFASRYIECF			protein stability index (Saccharomyces cerevisiae [2]): 0.416 ± 0.11; protein stability index (Saccharomyces cerevisiae [3]; [5]): 0.181 ± 0.0096; protein stability index (Saccharomyces cerevisiae [3]; [6]): 0.173 ± 0.027; protein stability index (Saccharomyces cerevisiae [3]; [7]): 0.216 ± 0.014; protein stability index (Saccharomyces cerevisiae [3]; [8]): 0.354 ± 0.013; protein stability index (Saccharomyces cerevisiae [3]; [9]): 0.187 ± 0.0019; protein stability index (Saccharomyces cerevisiae [3]; [10]): 0.22 ± 0.036; protein stability index (Saccharomyces cerevisiae [3]; [11]): 0.281 ± 0.028
LYTFCSMDANPM			protein stability index (Saccharomyces cerevisiae [2]): 0.4016 ± 0.0012; protein stability index (Saccharomyces cerevisiae [3]; [5]): 0.397 ± 0.019; protein stability index (Saccharomyces cerevisiae [3]; [6]): 0.439 ± 0.011; protein stability index (Saccharomyces cerevisiae [3]; [7]): 0.439 ± 0.019; protein stability index (Saccharomyces cerevisiae [3]; [8]): 0.383 ± 0.033; protein stability index (Saccharomyces cerevisiae [3]; [9]): 0.488 ± 0.028; protein stability index (Saccharomyces cerevisiae [3]; [10]): 0.468 ± 0.0092; protein stability index (Saccharomyces cerevisiae [3]; [11]): 0.407 ± 0.04
LPLCGLLLFLFF			protein stability index (Saccharomyces cerevisiae [2]): 0.435 ± 0.0059; protein stability index (Saccharomyces cerevisiae [3]; [5]): 0.472 ± 0.024; protein stability index (Saccharomyces cerevisiae [3]; [6]): 0.5394 ± 0.0043; protein stability index (Saccharomyces cerevisiae [3]; [7]): 0.433 ± 0.024; protein stability index (Saccharomyces cerevisiae [3]; [8]): 0.5302 ± 0.0025; protein stability index (Saccharomyces cerevisiae [3]; [9]): 0.42 ± 0.024; protein stability index (Saccharomyces cerevisiae [3]; [10]): 0.42 ± 0.015; protein stability index (Saccharomyces cerevisiae [3]; [11]): 0.492 ± 0.022
SFVGCWFVLLVR			protein stability index (Saccharomyces cerevisiae [2]): 0.179 ± 0.036; protein stability index (Saccharomyces cerevisiae [3]; [5]): 0.0307 ± 0.0085; protein stability index (Saccharomyces cerevisiae [3]; [6]): 0.0395 ± 0.0077; protein stability index (Saccharomyces cerevisiae [3]; [7]): 0.138 ± 0.024; protein stability index (Saccharomyces cerevisiae [3]; [8]): 0.235 ± 0.003; protein stability index (Saccharomyces cerevisiae [3]; [9]): 0.193 ± 0.0003; protein stability index (Saccharomyces cerevisiae [3]; [10]): 0.122 ± 0.025; protein stability index (Saccharomyces cerevisiae [3]; [11]): 0.159 ± 0.0049
CFRRPLLRVVLT			protein stability index (Saccharomyces cerevisiae [2]): 0.506 ± 0.018; protein stability index (Saccharomyces cerevisiae [3]; [5]): 0.502 ± 0.014; protein stability index (Saccharomyces cerevisiae [3]; [6]): 0.5681 ± 0.0051; protein stability index (Saccharomyces cerevisiae [3]; [7]): 0.451 ± 0.037; protein stability index (Saccharomyces cerevisiae [3]; [8]): 0.59 ± 0.025; protein stability index (Saccharomyces cerevisiae [3]; [9]): 0.4289 ± 0.0035; protein stability index (Saccharomyces cerevisiae [3]; [10]): 0.435 ± 0.017; protein stability index (Saccharomyces cerevisiae [3]; [11]): 0.569 ± 0.0089
